# Measurements from US20190241662A1 (ADAGENE, published 2019).
# Substitutions are numbered along the chain they refer to.
# T1: human B7H3 on HEK293F cells (human, UniProt Q5ZPR3 29-534)
# T1 construct: whole, on cells
# T1 sequence (looked up): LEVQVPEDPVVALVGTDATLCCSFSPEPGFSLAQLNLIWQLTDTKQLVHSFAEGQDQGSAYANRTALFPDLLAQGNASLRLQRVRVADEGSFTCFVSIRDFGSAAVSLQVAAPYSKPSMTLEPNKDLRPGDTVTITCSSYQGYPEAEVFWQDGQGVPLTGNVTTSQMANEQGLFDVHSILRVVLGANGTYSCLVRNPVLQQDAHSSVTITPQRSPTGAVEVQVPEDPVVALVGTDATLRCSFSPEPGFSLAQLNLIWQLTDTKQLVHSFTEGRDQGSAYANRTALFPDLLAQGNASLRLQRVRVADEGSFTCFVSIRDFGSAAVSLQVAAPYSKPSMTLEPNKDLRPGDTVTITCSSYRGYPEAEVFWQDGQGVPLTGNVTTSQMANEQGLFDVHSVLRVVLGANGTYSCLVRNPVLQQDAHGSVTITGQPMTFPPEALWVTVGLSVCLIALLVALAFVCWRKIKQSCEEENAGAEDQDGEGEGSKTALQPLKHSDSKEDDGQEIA
# T2: human LAG3 on HEK293F cells (human, UniProt P18627 23-525)
# T2 construct: whole, on cells
# T2 sequence (looked up): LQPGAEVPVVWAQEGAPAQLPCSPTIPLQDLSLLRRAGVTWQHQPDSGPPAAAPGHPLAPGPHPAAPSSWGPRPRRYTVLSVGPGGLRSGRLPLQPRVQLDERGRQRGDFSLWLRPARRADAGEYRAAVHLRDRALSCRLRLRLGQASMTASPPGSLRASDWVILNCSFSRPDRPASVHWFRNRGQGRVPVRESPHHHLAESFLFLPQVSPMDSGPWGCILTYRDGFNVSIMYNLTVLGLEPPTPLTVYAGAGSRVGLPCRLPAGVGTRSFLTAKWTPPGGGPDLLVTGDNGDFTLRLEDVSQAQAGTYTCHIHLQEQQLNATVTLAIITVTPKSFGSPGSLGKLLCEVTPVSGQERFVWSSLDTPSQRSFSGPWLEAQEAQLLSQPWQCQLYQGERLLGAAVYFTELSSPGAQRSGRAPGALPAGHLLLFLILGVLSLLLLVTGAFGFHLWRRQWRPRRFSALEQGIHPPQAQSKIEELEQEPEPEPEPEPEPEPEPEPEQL
# T3: human CD95 on HEK293F cells (human, UniProt P25445 26-335)
# T3 construct: whole, on cells
# T3 sequence (looked up): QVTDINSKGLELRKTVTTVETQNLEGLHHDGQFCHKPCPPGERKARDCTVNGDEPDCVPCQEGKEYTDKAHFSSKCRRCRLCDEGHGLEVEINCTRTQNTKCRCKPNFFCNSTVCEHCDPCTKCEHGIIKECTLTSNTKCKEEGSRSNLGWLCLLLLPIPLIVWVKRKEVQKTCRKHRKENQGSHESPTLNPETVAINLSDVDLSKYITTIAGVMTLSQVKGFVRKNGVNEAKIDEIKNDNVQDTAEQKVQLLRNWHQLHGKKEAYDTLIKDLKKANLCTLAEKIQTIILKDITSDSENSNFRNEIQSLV
# T4: human TNFR1 on HEK293F cells (human, UniProt P19438 30-455)
# T4 construct: whole, on cells; also called CD120a
# T4 sequence (looked up): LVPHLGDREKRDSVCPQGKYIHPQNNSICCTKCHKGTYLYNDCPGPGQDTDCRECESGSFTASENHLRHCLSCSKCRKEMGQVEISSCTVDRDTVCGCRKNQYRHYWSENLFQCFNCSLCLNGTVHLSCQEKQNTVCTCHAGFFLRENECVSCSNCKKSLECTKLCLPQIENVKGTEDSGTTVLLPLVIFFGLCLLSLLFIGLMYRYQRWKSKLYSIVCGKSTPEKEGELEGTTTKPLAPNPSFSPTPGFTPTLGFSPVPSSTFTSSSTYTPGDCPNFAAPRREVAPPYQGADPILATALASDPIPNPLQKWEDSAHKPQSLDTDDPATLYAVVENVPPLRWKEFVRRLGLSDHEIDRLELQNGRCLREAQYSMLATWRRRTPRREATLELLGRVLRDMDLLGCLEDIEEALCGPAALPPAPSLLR
# T5: human OX40 on HEK293F cells (human, UniProt P43489 29-277)
# T5 construct: whole, on cells
# T5 sequence (looked up): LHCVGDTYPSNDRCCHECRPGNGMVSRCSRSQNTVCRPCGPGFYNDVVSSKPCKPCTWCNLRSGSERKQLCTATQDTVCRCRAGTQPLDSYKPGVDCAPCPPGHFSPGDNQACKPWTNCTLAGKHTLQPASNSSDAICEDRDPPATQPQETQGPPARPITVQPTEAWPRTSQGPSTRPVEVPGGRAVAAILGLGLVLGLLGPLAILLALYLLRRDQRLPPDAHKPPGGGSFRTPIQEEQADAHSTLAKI
# B1: TY21691 (antibody, V domains shown)
# VH: EVQLVESGGGLVQPGGSLRLSCAASGFTFSDYAIHWVRQAPGKGLEWIGIISPSGGSTKYAQKFQGRVTISRDNSKNTLYLQLNSLRAEDTAVYYCARLGYGYFDVWGQGTLVTVSS
# VL: DIQLTQSPSSLSASVGDRVTITCRASQSVDFYGISFLHWYQQKPGKAPKLLIYDASSLESGVPSRFSGSGSGTDFTLTISSLQPEDFATYYCVQALQLPLTFGQGTKVEIK
# notes: human IgG1 (hIgG1) from Fab hit B15736
# B2: TY21687 (antibody, V domains shown)
# VH: EVQLVESGGGLVQPGGSLRLSCAASGFTFSGYAIHWVRQAPGKGLEWIGIISPSGGGTKYAQKFQGRVTISRDNSKNTLYLQLNSLRAEDTAVYYCARHPFAYWGQGTLVTVSS
# VL: DIQLTQSPSSLSASVGDRVTITCRASQSVDFYGISFLDWYQQKPGKAPKLLIYDASNRATGIPSRFSGSGSGTDFTLTISSLQPEDFATYYCQQYVSSPPEYTFGQGTKVEIK
# notes: human IgG1 (hIgG1) from Fab hit B15700
# B3: TY21585 (antibody, V domains shown)
# VH: EVQLVESGGGLVQPGGSLRLSCAASGFTFSDYAIHWVRQAPGKGLEWIGIISPSSGSTNYAQKFQGRVTISRDNSKNTLYLQLNSLRAEDTAVYYCARDIHSGSSGYYYGFDVWGQGTLVTVSS
# VL: B2 VL with Q27E, Y32F, D38A, Q94H, V96T, E101V
# notes: human IgG1 (hIgG1) from Fab hit B15709
# B4: TY21591 (antibody, V domains shown)
# VH: EVQLVESGGGLVQPGGSLRLSCAASGFSLSTGGVAVSWIRQAPGKGLEWIGEIYHSGSTYYSPSLKSRVTISRDNSKNTLYLQLNSLRAEDTAVYYCARRIATATYFDYWGQGTLVTVSS
# VL: DIQLTQSPSSLSASVGDRVTITCRASQTVFSRYLAWYQQKPGKAPKLLIYDASNRATGIPSRFSGSGSGTDFTLTISSLQPEDFATYYCQQSYYWPPWTFGQGTKVEIK
# notes: human IgG1 (hIgG1) from Fab hit B15756
# Experiments:
# [1] = target: T1, human B7H3 on HEK293F cells; test: flow cytometry, transfected HEK293F cells
# Experimental: (§1) Antibody selectivity was next examined. Human CTLA4, PD1, LAG3, Tim3, B7H3, CD95, TNFR1, OX40, CD40, PD-L1, BLTA, VISTA, PDL2, ICOS and B7H4 were transiently overexpressed on the surface of HEK293F cells. Transfected cells were washed in pre-chilled 1×PBSA buffer (1.76 mM KH2PO4, 10.14 mM Na2HPO4.12H2O, 2.68 mM KCl, 136.89 mM NaCl and 1% BSA), then incubated with 100 nM test antibodies for 1 hour on ice. Cells were washed once with staining buffer, and Alexa Fluor® 647 conjugated mouse anti-human FC antibodies were added and incubated for 30 minutes on ice, protected from light. Samples were washed once with staining buffer prior to analysis by flow cytometry.
# [2] = target: T2, human LAG3 on HEK293F cells; test: flow cytometry, transfected HEK293F cells, 100 nM antibody [Cont.]
# Experimental: as §1
# [3] = target: T6, human CD40 on HEK293F cells (human, UniProt P25942 21-277); test: as above
# T6 construct: whole, on cells
# Experimental: as §1
# [4] = target: T3, human CD95 on HEK293F cells; test: as above
# Experimental: as §1
# [5] = target: T4, human TNFR1 on HEK293F cells; test: as above
# Experimental: as §1
# [6] = target: T5, human OX40 on HEK293F cells; test: as above
# Experimental: as §1
# T6 sequence (P25942 21-277): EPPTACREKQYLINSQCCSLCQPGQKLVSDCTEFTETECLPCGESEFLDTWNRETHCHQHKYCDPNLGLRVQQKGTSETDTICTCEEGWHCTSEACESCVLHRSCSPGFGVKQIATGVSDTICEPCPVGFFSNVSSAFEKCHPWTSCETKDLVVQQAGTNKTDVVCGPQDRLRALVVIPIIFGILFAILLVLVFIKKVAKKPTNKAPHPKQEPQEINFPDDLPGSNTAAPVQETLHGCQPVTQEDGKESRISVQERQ
binder,measurement,setting,value
B1,binding result,[1],no binding (tested: 100 nM)
B2,% of cells in upper right quadrant (Q2),[2],1.31%
B3,% of cells in upper right quadrant (Q2),[3],0.95
same,Mean,[3],8270
B4,% of cells in upper right quadrant (Q2),[4],0.22
same,Mean,[4],5570
same,% of cells in upper right quadrant (Q2),[5],0.33
same,Mean,[5],6490
same,% of cells in upper right quadrant (Q2),[6],0.42
same,Mean,[6],11900
